# Laboratory results as given in the supplement of paper PMC10567573.
# B1: CD69 (parent)
# chain: FVAENSSLHPESGQENDATSPHFS
# Variants of: B1
# Assay: protein stability index of a GFP-peptide fusion (GPS, HEK-293T) (PSI 1-6); higher = more stable
# Conditions: c terminus: a fixed tail appended
# 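Also: lentivirally expressed fusions sorted by FACS into six bins by GFP to DsRed ratio, PSI derived from sequencing read proportions per bin multiplied by bin number.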
row,Variant,protein stability index
1,FVAENSSLHPESGQENTATSPHFS,2.54
2,FVAENSSLHPESGQENVATSPHFS,2.36
3,FVAENSSLHPESGQENWATSPHFS,1.92
4,FVAENSSLHPESGQENYATSPHFS,2.18
5,FVAENSSLHPESGQENDCTSPHFS,2.9
6,FVAENSSLHPESGQENDDTSPHFS,3.22
7,FVAENSSLHPESGQENDETSPHFS,3.87
8,FVAENSSLHPESGQENDFTSPHFS,2.67
9,FVAENSSLHPESGQENDGTSPHFS,3.03
10,FVAENSSLHPESGQENDHTSPHFS,2.45
11,FVAENSSLHPESGQENDITSPHFS,2.71
12,FVAENSSLHPESGQENDKTSPHFS,2.61
13,FVAENSSLHPESGQENDLTSPHFS,2.85
14,FVAENSSLHPESGQENDMTSPHFS,2.73
15,FVAENSSLHPESGQENDNTSPHFS,3.07
16,FVAENSSLHPESGQENDPTSPHFS,3.19
17,FVAENSSLHPESGQENDQTSPHFS,3.53
18,FVAENSSLHPESGQENDRTSPHFS,2.57
19,FVAENSSLHPESGQENDSTSPHFS,2.91
20,FVAENSSLHPESGQENDTTSPHFS,2.79
21,FVAENSSLHPESGQENDVTSPHFS,3.22
22,FVAENSSLHPESGQENDWTSPHFS,2.24
23,FVAENSSLHPESGQENDYTSPHFS,2.23
24,FVAENSSLHPESGQENDAASPHFS,3.35

row,Variant,protein stability index
1,FVAENSSLHPESGQENDACSPHFS,2.5
2,FVAENSSLHPESGQENDADSPHFS,3.75
3,FVAENSSLHPESGQENDAESPHFS,4.03
4,FVAENSSLHPESGQENDAFSPHFS,1.97
5,FVAENSSLHPESGQENDAGSPHFS,3.24
6,FVAENSSLHPESGQENDAHSPHFS,3.19
7,FVAENSSLHPESGQENDAISPHFS,3.16
8,FVAENSSLHPESGQENDAKSPHFS,2.37
9,FVAENSSLHPESGQENDALSPHFS,2.6
10,FVAENSSLHPESGQENDAMSPHFS,2.73
11,FVAENSSLHPESGQENDANSPHFS,2.9
12,FVAENSSLHPESGQENDAPSPHFS,2.84
13,FVAENSSLHPESGQENDAQSPHFS,3.16
14,FVAENSSLHPESGQENDARSPHFS,2.92
15,FVAENSSLHPESGQENDASSPHFS,2.84
16,FVAENSSLHPESGQENDAVSPHFS,2.77
17,FVAENSSLHPESGQENDAWSPHFS,2.75
18,FVAENSSLHPESGQENDAYSPHFS,2.02
19,FVAENSSLHPESGQENDATAPHFS,3.16
20,FVAENSSLHPESGQENDATCPHFS,2.78
21,FVAENSSLHPESGQENDATDPHFS,4.01
22,FVAENSSLHPESGQENDATEPHFS,3.75
23,FVAENSSLHPESGQENDATFPHFS,2.32
24,FVAENSSLHPESGQENDATGPHFS,3.17

row,Variant,protein stability index
1,FVAENSSLHPESGQENDATHPHFS,2.5
2,FVAENSSLHPESGQENDATIPHFS,3.02
3,FVAENSSLHPESGQENDATKPHFS,2.71
4,FVAENSSLHPESGQENDATLPHFS,3.02
5,FVAENSSLHPESGQENDATMPHFS,2.78
6,FVAENSSLHPESGQENDATNPHFS,2.71
7,FVAENSSLHPESGQENDATPPHFS,2.54
8,FVAENSSLHPESGQENDATQPHFS,3.15
9,FVAENSSLHPESGQENDATRPHFS,2.45
10,FVAENSSLHPESGQENDATTPHFS,3.12
11,FVAENSSLHPESGQENDATVPHFS,2.68
12,FVAENSSLHPESGQENDATWPHFS,2.09
13,FVAENSSLHPESGQENDATYPHFS,2.11
14,FVAENSSLHPESGQENDATSAHFS,2.62
15,FVAENSSLHPESGQENDATSCHFS,2.64
16,FVAENSSLHPESGQENDATSDHFS,3.6
17,FVAENSSLHPESGQENDATSEHFS,3.97
18,FVAENSSLHPESGQENDATSFHFS,2.91
19,FVAENSSLHPESGQENDATSGHFS,3.04
20,FVAENSSLHPESGQENDATSHHFS,2.46
21,FVAENSSLHPESGQENDATSIHFS,2.65
22,FVAENSSLHPESGQENDATSKHFS,3.25
23,FVAENSSLHPESGQENDATSLHFS,2.33
24,FVAENSSLHPESGQENDATSMHFS,2.56

row,Variant,protein stability index
1,FVAENSSLHPESGQENDATSNHFS,2.6
2,FVAENSSLHPESGQENDATSQHFS,3.15
3,FVAENSSLHPESGQENDATSRHFS,2.56
4,FVAENSSLHPESGQENDATSSHFS,2.98
5,FVAENSSLHPESGQENDATSTHFS,2.86
6,FVAENSSLHPESGQENDATSVHFS,2.52
7,FVAENSSLHPESGQENDATSWHFS,2.9
8,FVAENSSLHPESGQENDATSYHFS,2.62
9,FVAENSSLHPESGQENDATSPAFS,3.21
10,FVAENSSLHPESGQENDATSPCFS,2.65
11,FVAENSSLHPESGQENDATSPDFS,3.79
12,FVAENSSLHPESGQENDATSPEFS,3.82
13,FVAENSSLHPESGQENDATSPFFS,1.66
14,FVAENSSLHPESGQENDATSPGFS,3.33
15,FVAENSSLHPESGQENDATSPIFS,2.45
16,FVAENSSLHPESGQENDATSPKFS,3.24
17,FVAENSSLHPESGQENDATSPLFS,2.64
18,FVAENSSLHPESGQENDATSPMFS,2.71
19,FVAENSSLHPESGQENDATSPNFS,3.21
20,FVAENSSLHPESGQENDATSPPFS,3.19
21,FVAENSSLHPESGQENDATSPQFS,3.76
22,FVAENSSLHPESGQENDATSPRFS,3.18
